Measured values published in paper doi:10.1101/2023.03.17.532992.
pKd: −log10 of the molar value.

Assays:
[1] = target: nucleosome core particle (recombinant X. laevis histone octamer on 601 positioning DNA) (X. laevis); experiment: native gel or EMSA
[2] = target: nucleosome core particle (recombinant X. laevis histone octamer on 601 positioning DNA) (X. laevis); experiment: SEC-MALS
[3] = target: nucleosome core particle (recombinant X. laevis histone octamer on 601 positioning DNA) (X. laevis); experiment: MST
[4] = target: nucleosome core particle (recombinant X. laevis histone octamer on 601 positioning DNA) (X. laevis); experiment: AUC

Substance | pKd [1] | decrease of binding affinity against wild type [1] | other results
BCL7C, full length (from UniProt Q8WUZ0 1-217) (natural protein) | 6.91 |  | 
BCL7A R11S mutant protein (from UniProt Q4VC05-2 1-231) (natural protein) |  | 50% | 

Continued, in another order:

pKd [1] | decrease of binding affinity against wild type [1] | Substance | other results
6.36 |  | BCL7A (1-100) truncation mutant (from UniProt Q4VC05-2 1-100) (domain or fragment) | 
6.66 |  | BCL7A, full length human (isoform Q4VC05-2, 231 amino acids) (from UniProt Q4VC05-2 1-231) (natural protein) | stoichiometry N (BCL7A per NCP) [2]: 1; pKd [3]: 6.64; stoichiometry N (BCL7A per NCP) [4]: 1
 | 50% | BCL7A P78S mutant protein (from UniProt Q4VC05-2 1-231) (natural protein) | 
